First the molecules themselves.
T1: RING1B, full-length (UniProt Q99496 1-336)
T1 sequence (looked up): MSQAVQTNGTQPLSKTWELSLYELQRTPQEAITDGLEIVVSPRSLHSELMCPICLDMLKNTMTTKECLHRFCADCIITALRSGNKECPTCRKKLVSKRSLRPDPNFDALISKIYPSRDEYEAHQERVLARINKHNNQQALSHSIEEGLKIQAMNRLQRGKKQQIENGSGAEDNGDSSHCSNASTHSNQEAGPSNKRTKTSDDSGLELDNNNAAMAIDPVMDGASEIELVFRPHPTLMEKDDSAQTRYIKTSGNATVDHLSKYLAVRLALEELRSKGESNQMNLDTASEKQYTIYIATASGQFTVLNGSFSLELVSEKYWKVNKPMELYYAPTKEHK

B1: PCGF1 35–255 (RING finger and RAWUL domains) (domain or fragment, UniProt Q9BSM1 35-255, looked up)
chain: RVKIKDLNEHIVCCLCAGYFVDATTITECLHTFCKSCIVKYLQTSKYCPMCNIKIHETQPLLNLKLDRVMQDIVYKLVPGLQDSEEKRIREFYQSRGLDRVTQPTGEEPALSNLGLPFSSFDHSKAHYYRYDEQLNLCLERLSSGKDKNKSVLQNKYVRCSVRAEVRHLRRVLCHRLMLNPQHVQLLFDNEVLPDHMTMKQIWLSRWFGKPSPLLLQYSVK
B2: BCORL1 PUFD (1594–1711) (domain or fragment)
chain: METRDDFMFELSDKPLLPCYNLQVSVSRGPCNWFLFSDVLKRLKLSSRIFQARFPHFEITTMPKAEFYRQVASSQLLTPAERPGGLDDRSPPGSSETVELVRYEPDLLRLLGSEVEFQSCNS
B3: PCGF1 150–255/BCORL1 PUFD dimer (complex)
chain 1: LPFSSFDHSKAHYYRYDEQLNLCLERLSSGKDKNKSVLQNKYVRCSVRAEVRHLRRVLCHRLMLNPQHVQLLFDNEVLPDHMTMKQIWLSRWFGKPSPLLLQYSVK
chain 2: B2 chain

In one test the target is T1, RING1B, full-length. Briefly: AUC.
For test [1], the target named is B1. Briefly: AUC.
In test [2] the target is KDM2B 1059–1336/SKP1 heterodimer (UniProt Q8NHM5 1059-1336; P63208 2-163). Briefly: ITC. For orientation: Isothermal titration calorimetry measures the heat released or taken up as one component is titrated into another.

The values below come from PMC5088048 (Structure (London, England : 1993), 2016).

KDM2B 1059–1336/SKP1 heterodimer, sequence (Q8NHM5 1059-1336, chain 1 of 2): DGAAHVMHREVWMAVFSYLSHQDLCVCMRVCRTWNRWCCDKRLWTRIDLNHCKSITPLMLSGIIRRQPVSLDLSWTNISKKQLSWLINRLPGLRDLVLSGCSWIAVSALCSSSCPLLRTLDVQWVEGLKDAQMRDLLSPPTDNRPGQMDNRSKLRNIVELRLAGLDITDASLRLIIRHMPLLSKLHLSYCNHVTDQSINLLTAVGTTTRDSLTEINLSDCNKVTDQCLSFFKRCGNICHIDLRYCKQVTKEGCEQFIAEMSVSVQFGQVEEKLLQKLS
KDM2B 1059–1336/SKP1 heterodimer, sequence (P63208 2-163, chain 2 of 2): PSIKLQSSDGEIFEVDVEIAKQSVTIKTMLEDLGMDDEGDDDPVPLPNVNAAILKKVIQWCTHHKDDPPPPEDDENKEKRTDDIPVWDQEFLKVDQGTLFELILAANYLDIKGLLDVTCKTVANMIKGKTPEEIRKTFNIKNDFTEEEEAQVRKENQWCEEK

Regarding B1, the “stoichiometry N” value with RING1B, full-length was 1.

For the molecule B2, the “stoichiometry N” value in the test with RING1B, full-length was 1; in test [1], 1.

In turn, B3 gave a Kd in test [2] of 2800 nM.

The stoichiometry N is the number of molecules, sites or subunits per partner or assembly. By Kd is commonly meant the free concentration of one partner at which half of the binding sites on the other are occupied at equilibrium, for simple one-to-one binding.
